Laboratory results from PMC8346855 (Proceedings of the National Academy of Sciences of the …, 2021).
Changes are numbered by the printed parent chain.

B1: mini-Go (domain or fragment)
chain: GIEKNLKEDGISAAKDVKLLLLGADNSGKSTIVKQMKIIHGGSGGSGGTTGIVETHFTFKNLHFRLFDVGGQRSERKKWIHCFEDVTAIIFCVDLSDYNRMHESLMDFDSICNNKFFIDTSIILFLNKKDLFGEKIKKSPLTICFPEYTGPNTYEDAAAYIQAQFESKNRSPNKEIYCHMTCATDTNNAQVIFDAVTDIIIANNLRGCGLY
notes: thermostabilized truncated form of the Gαo subunit with the GTPase domain, lacking the α-helical domain; also called mGo; source: E. coli, purified (Ni Sepharose, TEV cleavage, reverse Ni-NTA, gel filtration); not shown: His tag, N-terminal, cleaved
B2: nanobody 80 (VHH)
VHH: QVQLQESGGGLVQAGGSLRLSCAASGSIFSINTMGWYRQAPGKQRELVAAIHSGGSTNYANSVKGRFTISRDNAANTVYLQMNSLKPEDTAVYYCNVKDYGAVLYEYDYWGQGTQVTVSS
notes: nanobody 80; also called Nb80; NB80; not shown: His6, C-terminal, kept
B3: nanobody 80 (VHH)
VHH: B2 VHH
notes: also called Nb80; a Gs mimetic nanobody; source: purified
B4: mini-Gq (domain or fragment)
chain: GIEKQLQKDKQVYRATHRLLLLGADNSGKSTIVKQMRILHGGSGGSGGTSGIFETKFQVDKVNFHMFDVGGQRDERRKWIQCFNDVTAIIFVVDSSDYNRLQEALNDFKSIWNNRWLRTISVILFLNKQDLLAEKVLAGKSKIEDYFPEFARYTTPEDATPEPGEDPRVTRAKYFIRDEFLRISTASGDGRHYCYPHFTCAVDTENARRIFNDCKDIILQMNLREYNLV
notes: engineered from mGs (Dm5) by nine mutations on the α5-helix that correspond to residues of Gq; only residues of the α5-helix are those of Gq; also called mGq; source: E. coli, purified (Ni Sepharose, TEV cleavage, reverse Ni-NTA, gel filtration); not shown: His tag, N-terminal, cleaved
B5: mini-Gs (domain or fragment)
chain: B4 chain with K215R, L219Q, Q220R, N222H, E225Q, N227E, V229L
notes: thermostabilized truncated Gαs with the GTPase domain, lacking the α-helical domain; also called mGs; source: E. coli, purified (Ni Sepharose, TEV cleavage, reverse Ni-NTA, gel filtration); not shown: His tag, N-terminal, cleaved
B6: mini-Gi (domain or fragment)
chain: B4 chain with C214V, K215T, L219I, Q220K, E225D, Y226C, N227G, V229F
notes: engineered from mGs (Dm5) by seven mutations on the α5-helix that correspond to residues of Gi; only residues of the α5-helix are those of Gi; also called mGi; source: E. coli, purified (Ni Sepharose, TEV cleavage, reverse Ni-NTA, gel filtration); not shown: His tag, N-terminal, cleaved
B7: mini-Go truncated by its last five residues (domain or fragment)
chain: GIEKNLKEDGISAAKDVKLLLLGADNSGKSTIVKQMKIIHGGSGGSGGTTGIVETHFTFKNLHFRLFDVGGQRSERKKWIHCFEDVTAIIFCVDLSDYNRMHESLMDFDSICNNKFFIDTSIILFLNKKDLFGEKIKKSPLTICFPEYTGPNTYEDAAAYIQAQFESKNRSPNKEIYCHMTCATDTNNAQVIFDAVTDIIIANNLR
notes: mGo (Dm6) without its last five residues GCGLY; also called mGo_Δ5; source: E. coli, purified (same protocol as the mGα proteins); not shown: His tag, N-terminal, cleaved

What was measured:
Details in all cases: both partners purified
[1] = biological target: T1, thermostabilized turkey beta-1 adrenergic receptor (turkey); assay: cross-linking + other: high-mass MALDI-MS; formation of β1AR•mGo with the titration of mGo, reading of EC50 (Graphpad); ligand state of β1AR not told for this curve
T1 construct: turkey beta-1 adrenergic receptor, thermostabilized, truncated at the C terminus and intracellular loop 3; the states are told apart by the assay; also called β1AR; apo-β1AR
T1 sequence (chain, as listed by the source): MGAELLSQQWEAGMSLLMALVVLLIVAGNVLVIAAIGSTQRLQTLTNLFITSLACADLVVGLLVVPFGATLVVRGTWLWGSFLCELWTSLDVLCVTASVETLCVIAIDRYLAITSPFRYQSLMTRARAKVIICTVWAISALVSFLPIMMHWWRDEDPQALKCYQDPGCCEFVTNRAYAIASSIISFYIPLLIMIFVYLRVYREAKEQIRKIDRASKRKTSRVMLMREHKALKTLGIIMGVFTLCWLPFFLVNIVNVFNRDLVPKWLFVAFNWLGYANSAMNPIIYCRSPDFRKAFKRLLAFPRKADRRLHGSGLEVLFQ

[2] = biological target: T1, thermostabilized turkey beta-1 …; assay: cross-linking + other: high-mass MALDI-MS; isoprenaline-bound β1AR (iso-β1AR), 5 µM, mixed with partner protein at various concentrations, 1 h at room temperature, BS(PEG)9 cross-linking, 0.6 µM β-Gal as internal standard; 20 mM Hepes pH 7.5, 40 mM NaCl, 0.01% LMNG; Ka = 1/Kd
[3] = biological target: T1, thermostabilized turkey beta-1 …; assay: cross-linking + other: high-mass MALDI-MS; ligand-free (apo) GPCR, 5 µM, mixed with partner protein at various concentrations, 1 h at room temperature, BS(PEG)9 cross-linking, β-Gal as internal standard; 20 mM Hepes pH 7.5, 40 mM NaCl, 0.01% LMNG; Ka = 1/Kd
[4] = biological target: T1, thermostabilized turkey beta-1 …; assay: cross-linking + other: high-mass MALDI-MS; competition: Nb80 (0 to 13.3 µM) added to iso-β1AR (2.5 µM) and mGo (3.0 µM), 1 h at room temperature, BS(PEG)9 cross-linking, β-Gal as internal standard; read-out β1AR•mGo formation
[5] = biological target: T2, thermostabilized turkey beta-1 adrenergic receptor (Meleagris gallopavo (turkey), stabilised); assay: cross-linking; Kd by titrating the partner protein against isoprenaline-bound β1AR; 20 mM Hepes pH 7.5, 40 mM NaCl, 0.01% lauryl maltose neopentyl glycol; BS(PEG)9, high-mass MALDI-MS, normalised to β-galactosidase
T2 construct: beta-1 adrenergic receptor, turkey, thermostabilized, truncated at the C terminus and intracellular loop 3; Not treated with kinases; Small-molecule ligand states are told apart by the assay; also called β1AR; apo-β1AR; source: purified
T2 sequence (P07700 other isoform, or with tags, fused parts or gaps, stated change not applied): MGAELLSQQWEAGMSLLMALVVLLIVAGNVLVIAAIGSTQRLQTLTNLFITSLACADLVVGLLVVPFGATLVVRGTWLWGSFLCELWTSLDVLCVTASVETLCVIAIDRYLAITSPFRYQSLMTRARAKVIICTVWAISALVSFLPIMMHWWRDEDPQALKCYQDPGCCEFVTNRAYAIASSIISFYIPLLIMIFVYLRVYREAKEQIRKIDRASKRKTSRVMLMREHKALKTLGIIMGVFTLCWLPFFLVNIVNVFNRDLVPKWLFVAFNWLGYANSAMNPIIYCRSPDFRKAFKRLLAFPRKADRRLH

[6] = biological target: T2, thermostabilized turkey beta-1 …; assay: cross-linking; competition: 2.5 μM β1AR, 3.0 μM mGo, increasing concentrations of Nb80; BS(PEG)9, high-mass MALDI-MS

Binder	Ka [2] [M⁻¹]	also measured
B1	4e+06	EC50 [1]: 1.58 µM; Ka [3]: 4e+06 M⁻¹
B2	4.76e+06	IC50 [4]: 4.61 µM
B3	–	Kd [5]: 0.21 µM; Ki [6]: 1.57 ± 0.24 µM
B4	810000	–
B5	2.86e+06	–
B6	620000	–
B7	4.17e+06	Ka [3]: 3.57e+06 M⁻¹
